B1: Sbh1 (S. cerevisiae) (natural protein, UniProt P52870 1-82, looked up)
chain: MSSPTPPGGQRTLQKRKQGSSQKVAASAPKKNTNSNNSILKIYSDEATGLRVDPLVVLFLAVGFIFSVVALHVISKVAGKLF
modifications: surface-exposed lysines modified with low-molecular weight polyethylenglycol (MS(PEG)12 methyl-PEG-NHS-ester)
B2: Sss1 (S. cerevisiae) (natural protein, UniProt P35179 1-80, looked up)
chain: MARASEKGEEKKQSNNQVEKLVEAPVEFVREGTQFLAKCKKPDLKEYTKIVKAVGIGFIAVGIIGYAIKLIHIPIRYVIV
modifications: surface-exposed lysines modified with low-molecular weight polyethylenglycol (MS(PEG)12 methyl-PEG-NHS-ester)
B3: Sec71 (S. cerevisiae) (natural protein, UniProt P33754 1-206, looked up)
chain: MSEFNETKFSNNGTFFETEEPIVETKSISVYTPLIYVFILVVSLVMFASSYRKKQAKKISEQPSIFDENDAHDLYFQIKEMSENEKIHEKVLKAALLNRGAESVRRSLKLKELAPQINLLYKNGSIGEDYWKRFETEVKLIELEFKDTLQEAERLQPGWVQLFVMVCKEICFNQALSRRYQSILKRKEVCIKEWELKINNDGRLVN
modifications: glycan (cleaved by Endoglycosidase H); surface-exposed lysines modified with low-molecular weight polyethylenglycol (MS(PEG)12 methyl-PEG-NHS-ester)

target: T1, Sec61 (S. cerevisiae) (S. cerevisiae, UniProt P32915 1-480, surface-exposed lysines modified with low-molecular weight polyethylenglycol (MS(PEG)12 methyl-PEG-NHS-ester)); test: cryo-EM structure
T1 sequence (looked up): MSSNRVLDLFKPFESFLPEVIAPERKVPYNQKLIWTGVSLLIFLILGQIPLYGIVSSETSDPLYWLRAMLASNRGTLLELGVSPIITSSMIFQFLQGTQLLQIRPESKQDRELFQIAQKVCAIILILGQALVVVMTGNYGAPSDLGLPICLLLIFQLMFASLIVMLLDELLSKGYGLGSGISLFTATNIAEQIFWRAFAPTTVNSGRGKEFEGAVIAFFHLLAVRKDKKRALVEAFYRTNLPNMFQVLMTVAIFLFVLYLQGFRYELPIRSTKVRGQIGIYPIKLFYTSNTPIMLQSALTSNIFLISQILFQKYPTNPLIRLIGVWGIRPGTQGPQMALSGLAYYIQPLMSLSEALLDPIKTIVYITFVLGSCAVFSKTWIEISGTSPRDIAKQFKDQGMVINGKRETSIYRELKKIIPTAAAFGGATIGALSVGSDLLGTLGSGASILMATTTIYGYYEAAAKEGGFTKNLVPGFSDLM

Binding result, binds:
B1
B2
B3

Reference: PMC6367035 (Nature, 2018)
